The source of these data is article PMC7820937.

Test in all cases: ELISA
On the technique in general: An ELISA detects its analyte on a solid surface through an enzyme-linked reagent.

The target of experiment [1] is C4BP α-chain deletant ΔCCP1 (human) (UniProt P04003).
Experiment [2] has as its target C4BP α-chain deletant ΔCCP2 (human) (UniProt P04003).
Experiment [3] addresses C4BP α-chain deletant ΔCCP3 (human) (UniProt P04003).
For experiment [4], the target named is C4BP α-chain deletant ΔCCP4 (human) (UniProt P04003).
Experiment [5] concerns the target C4BP α-chain deletant ΔCCP5 (human) (UniProt P04003).
Experiment [6] addresses C4BP α-chain deletant ΔCCP6 (human) (UniProt P04003).
The target in experiment [7] is C4BP α-chain deletant ΔCCP7 (human) (UniProt P04003).
Experiment [8] concerns the target C4BP α-chain deletant ΔCCP8 (human) (UniProt P04003).
In experiment [9] the target is C4BP α-chain deletant ΔCCP4 (human) (UniProt P04003). The source holds these as a separate data set.
For experiment [10], the target named is C4BP α-chain deletant ΔCCP5 (human) (UniProt P04003). The source holds these as a separate data set.

Like-named read-outs stand apart in the source and are kept apart here.

Consider “Influenza A virus A/England/2009 (H1N1), whole virus particles (complex)”, for which the percent loss of binding against full-length C4BP in experiment [1] is 20%; in [2] it was 20%; in experiment [4] it was 60%; in experiment [5], 60%; in experiment [7], 49%; in [8] it was 75%. In addition, the percent loss of binding against full-length C4BP in experiment [9] and in experiment [10] was 67% each time. Further, the percent increase of binding against full-length C4BP in experiment [3] and in [6] was 10% in each case.

As for “Influenza A virus A/HK/99 (H3N2), whole virus particles (complex)”, the percent loss of binding against full-length C4BP in experiment [1] was determined as 80%; in experiment [2], 80%; in experiment [4] it was 80%; in [5], 80%; in [7] it was 62%; in experiment [8] it was 75%. Besides, the percent increase of binding against full-length C4BP in experiment [3] and in experiment [6] was 10% in each case.
